Laboratory results: IntAct's records for PubMed 7518772

B1: Receptor-type tyrosine-protein phosphatase alpha (Mus musculus), P18052 (parent)
chain: MDSWFILVLFGSGLIHVSANNATTVSPSLGTTRLIKTSTTELAKEENKTSNSTSSVISLSVAPTFSPNLTLEPTYVTTVNSSHSDNGTRRAASTESGGTTISPNGSWLIENQFTDAITEPWEGNSSTAATTPETFPPADETPIIAVMVALSSLLVIVFIIIVLYMLRFKKYKQAGSHSNSFRLSNGRTEDVEPQSVPLLARSPSTNRKYPPLPVDKLEEEINRRMADDNKLFREEFNALPACPIQATCEAASKEENKEKNRYVNILPFLSLAVSKDAVKALNKTTPLLERRFIGKSNSRGCLSDDHSRVHLTPVEGVPDSDYINASFINGYQEKNKFIAAQGPKEETVNDFWRMIWEQNTATIVMVTNLKERKECKCAQYWPDQGCWTYGNVRVSVEDVTVLVDYTVRKFCIQQVGDVTNRKPQRLITQFHFTSWPDFGVPFTPIGMLKFLKKVKACNPQYAGAIVVHCSAGVGRTGTFVVIDAMLDMMHSERKVDVYGFVSRIRAQRCQMVQTDMQYVFIYQALLEHYLYGDTELEVTSLETHLQKIYNKIPGTSNNGLEEEFKKLTSIKIQNDKMRTGNLPANMKKNRVLQIIPYEFNRVIIPVKRGEENTDYVNASFIDGYRQKDSYIASQGPLLHTIEDFWRMIWEWKSCSIVMLTELEERGQEKCAQYWPSDGLVSYGDITVELKKEEECESYTVRDLLVTNTRENKSRQIRQFHFHGWPEVGIPSDGKGMINIIAAVQKQQQQSGNHPITVHCSAGAGRTGTFCALSTVLERVKAEGILDVFQTVKSLRLQRPHMVQTLEQYEFCYKVVQEYIDAFSDYANFK

Variants of: B1
Conditions: with src_mouse Src

effect of a mutation on the interaction	Variant
disrupting interaction	Y825F
